{"source": "patent US10329331B2", "about": "“Polypeptides” (priority 2010, dated 2019)", "key": {"[1]": {"assay": "Small animal PET whole body distribution of 68Ga-labeled polypeptide", "type": "in vivo", "conditions": "rat, after intravenous injection, PET over […]", "experimental": "The labeling mixture was incubated at 90° C. for 15 min before cooling, and the labeled protein was isolated by size exclusion purification on a NAP-5 column eluted with physiologically buffered saline.\nA rat (277 g) was anesthetized with isoflurane (initially 5%, then 2% blended with 7:3 air/O2), controlled by an E-Z vaporizer using Microflex non-rebreather masks from Euthanex Corporation, and was kept on a heating pad (37° C.) while lying within a microPET Focus120 system (Siemens, CTI Concorde Microsystems). ^68Ga-PEP08296, 33 MBq, was dispensed in a syringe, diluted with saline to 0.5 ml and injected via the tail vein. Data were acquired from the whole body by moving the bed in a constant bed motion protocol for 1.5 h. Data were processed with MicroPET Manager and corrected for randoms, dead time and decay. Images were reconstructed by standard 2D filtered back projection using a ramp filter and evaluated using Inveon Research Workplace (Siemens Medical Solutions) software."}, "[2]": {"tested_on": "IgG molecules present in normal human sera", "assay": "Serum response analysis: ELISA of human serum IgG binding to albumin binding polypeptides", "conditions": "126 positive sera diluted 50 times; polypeptide 2 μg/ml on albumin coated plates", "experimental": "Each serum sample was tested as a singlet."}, "[3]": {"tested_on": "CD3+ CD4+ T cells in peripheral blood mononuclear cells (PBMC)"}, "physchem": {"assay": "physchem", "type": "physicochemical", "experimental": "Amicon Ultra centrifugal filter units, cut off of 3 kDa, (Millipore, Cat. No. UFC800324) were prerinsed with 2 ml NaPi buffer by centrifugation at 4000 g for 20 min in a swinging bucket rotor centrifuge (Multifuge, Heraeus). […] A 25 μl sample was removed (UF sample 1) for further analysis and the rest of the sample was transferred to a second centrifugal filter unit. The centrifugation and sample removal were repeated three times with spinning times of 8, 9 and 20 min respectively (UF sample 2, 3 and 4 respectively). Absorbance readings were performed using a NANODROP ND-1000 Spectrophotometer and by diluting UF samples 1-4 in NaPi buffer 2, 4, 6 and 12 times respectively. The concentrations were calculated using the extinction coefficient 1 Abs 280=1.955 mg/ml. Gel filtration was performed on a 1100 HPLC system (Agilent Technologies) using a Superdex75 10/300 GL column (GE Healthcare) which had been equilibrated in NaPi buffer. 10 μl of each UF sample were applied to the column; NaPi buffer was used as running buffer and the flow rate was 0.5 ml/min. A chromatogram of the molecular weight standard ovalbumin (GE Healthcare), injected at a concentration of 5 mg/ml was collected as well. Concentrations were determined by integrating the area under the curve."}}, "data": [{"smiles": "CC[C@H](C)[C@H](NC(=O)[C@H](C)NC(=O)[C@H](CC(=O)O)NC(=O)[C@H](CCCCN)NC(=O)[C@H](CC(C)C)NC(=O)[C@H](C)NC(=O)[C@H](CCC(=O)O)NC(=O)[C@@H](NC(=O)CNC(=O)[C@H](CCC(=O)O)NC(=O)[C@@H](NC(=O)[C@@H](NC(=O)[C@H](CCCCN)NC(=O)[C@H](C)NC(=O)[C@H](CCCCN)NC(=O)[C@H](CC(=O)O)NC(=O)[C@@H](NC(=O)[C@H](CC(C)C)NC(=O)[C@H](CCCNC(=N)N)NC(=O)[C@H](CCCCN)NC(=O)[C@H](Cc1ccc(O)cc1)NC(=O)[C@H](Cc1ccccc1)NC(=O)[C@H](CC(=O)O)NC(=O)[C@H](CO)NC(=O)[C@@H](NC(=O)CNC(=O)[C@H](Cc1ccc(O)cc1)NC(=O)[C@H](CSC1CC(=O)N(CCNC(=O)CN2CCN(CC(=O)O)CCN(CC(=O)O)CCN(CC(=O)O)CC2)C1=O)NC(=O)[C@H](CC(=O)O)NC(=O)[C@H](CC(C)C)NC(=O)[C@H](CCC(=O)O)NC(=O)[C@H](C)NC(=O)[C@H](CC(N)=O)NC(=O)[C@H](C)NC(=O)[C@H](C)NC(=O)[C@H](CCC(=O)O)NC(=O)[C@H](CCCCN)NC(=O)[C@H](C)NC(=O)[C@H](CCC(=O)O)NC(=O)[C@H](C)NC(=O)[C@H](CC(C)C)NC(=O)[C@H](CO)NC(=O)CN)C(C)C)[C@@H](C)CC)[C@@H](C)O)C(C)C)C(C)C)C(=O)N[C@@H](CC(C)C)C(=O)N[C@@H](C)C(=O)N[C@@H](C)C(=O)N[C@@H](CC(C)C)C(=O)N1CCC[C@H]1C(=O)NCC(=O)O", "note": "(single isomer, unassigned) [^68Ga-PEP08296, metal not drawn]", "values": [{"measurement": "plasma clearance", "setting": "[1]", "result": "very slow"}]}, {"smiles": "CC[C@H](C)[C@H](NC(=O)[C@H](Cc1c[nH]cn1)NC(=O)[C@H](CC(C)C)NC(=O)[C@H](CCCCN)NC(=O)[C@H](CC(C)C)NC(=O)[C@H](C)NC(=O)[C@H](CCC(=O)O)NC(=O)[C@@H](NC(=O)CNC(=O)[C@H](CCC(=O)O)NC(=O)[C@@H](NC(=O)[C@@H](NC(=O)[C@H](CCCCN)NC(=O)[C@H](C)NC(=O)[C@H](CCCCN)NC(=O)[C@H](CC(N)=O)NC(=O)[C@@H](NC(=O)[C@H](CC(C)C)NC(=O)[C@H](CCCNC(=N)N)NC(=O)[C@H](CCCCN)NC(=O)[C@H](Cc1ccc(O)cc1)NC(=O)[C@H](Cc1ccccc1)NC(=O)[C@H](CC(=O)O)NC(=O)[C@H](CO)NC(=O)[C@@H](NC(=O)CNC(=O)[C@H](Cc1ccc(O)cc1)NC(=O)[C@H](CCCCN)NC(=O)[C@H](CC(=O)O)NC(=O)[C@H](CC(C)C)NC(=O)[C@H](CCC(=O)O)NC(=O)[C@H](CCCNC(=N)N)NC(=O)[C@H](CC(N)=O)NC(=O)[C@H](C)NC(=O)[C@H](CC(C)C)NC(=O)[C@@H](NC(=O)[C@H](CCCCN)NC(=O)[C@H](C)NC(=O)[C@H](CCC(=O)O)NC(=O)[C@H](C)NC(=O)[C@H](CC(C)C)NC(=O)[C@H](CO)NC(=O)[C@H](CO)NC(=O)CN)C(C)C)C(C)C)[C@@H](C)CC)[C@@H](C)O)C(C)C)C(C)C)C(=O)N[C@@H](CC(C)C)C(=O)N[C@@H](C)C(=O)N[C@@H](C)C(=O)N[C@@H](CC(C)C)C(=O)N1CCC[C@H]1C(=O)O", "note": "[PEP06923]", "values": [{"measurement": "reactivity with IgG in human sera (average OD-value, percentage of sera with IgG binding)", "setting": "[2]", "result": "highest average OD-value and the highest percentage of serum with IgG binding"}]}, {"smiles": "CC[C@H](C)[C@H](NC(=O)[C@H](C)NC(=O)[C@H](CC(=O)O)NC(=O)[C@H](CCCCN)NC(=O)[C@H](CC(C)C)NC(=O)[C@H](C)NC(=O)[C@H](CCC(=O)O)NC(=O)[C@@H](NC(=O)CNC(=O)[C@H](CCC(=O)O)NC(=O)[C@@H](NC(=O)[C@@H](NC(=O)[C@H](CCCCN)NC(=O)[C@H](C)NC(=O)[C@H](CCCCN)NC(=O)[C@H](CC(=O)O)NC(=O)[C@@H](NC(=O)[C@H](CC(C)C)NC(=O)[C@H](CCCNC(=N)N)NC(=O)[C@H](CCCCN)NC(=O)[C@H](Cc1ccc(O)cc1)NC(=O)[C@H](Cc1ccccc1)NC(=O)[C@H](CC(=O)O)NC(=O)[C@H](CO)NC(=O)[C@@H](NC(=O)CNC(=O)[C@H](Cc1ccc(O)cc1)NC(=O)[C@H](CO)NC(=O)[C@H](CC(=O)O)NC(=O)[C@H](CC(C)C)NC(=O)[C@H](CCC(=O)O)NC(=O)[C@H](C)NC(=O)[C@H](CC(N)=O)NC(=O)[C@H](C)NC(=O)[C@H](C)NC(=O)[C@H](CCC(=O)O)NC(=O)[C@H](CCCCN)NC(=O)[C@H](C)NC(=O)[C@H](CCC(=O)O)NC(=O)[C@H](C)NC(=O)[C@H](CC(C)C)NC(=O)CN)C(C)C)[C@@H](C)CC)[C@@H](C)O)C(C)C)C(C)C)C(=O)N[C@@H](CC(C)C)C(=O)N[C@@H](C)C(=O)N[C@@H](C)C(=O)N[C@@H](CC(C)C)C(=O)N1CCC[C@H]1C(=O)O", "note": "[PEP07914]", "values": [{"measurement": "immunogenicity classification", "setting": "[3]", "result": "non-immunogenic"}]}, {"smiles": "CC[C@H](C)[C@H](NC(=O)[C@H](C)NC(=O)[C@H](CC(=O)O)NC(=O)[C@H](CCCCN)NC(=O)[C@H](CC(C)C)NC(=O)[C@H](C)NC(=O)[C@H](CCC(=O)O)NC(=O)[C@@H](NC(=O)CNC(=O)[C@H](CCC(=O)O)NC(=O)[C@@H](NC(=O)[C@@H](NC(=O)[C@H](CCCCN)NC(=O)[C@H](C)NC(=O)[C@H](CCCCN)NC(=O)[C@H](CC(=O)O)NC(=O)[C@@H](NC(=O)[C@H](CC(C)C)NC(=O)[C@H](CCCNC(=N)N)NC(=O)[C@H](CCCCN)NC(=O)[C@H](Cc1ccc(O)cc1)NC(=O)[C@H](Cc1ccccc1)NC(=O)[C@H](CC(=O)O)NC(=O)[C@H](CO)NC(=O)[C@@H](NC(=O)CNC(=O)[C@H](Cc1ccc(O)cc1)NC(=O)[C@H](CSC1CC(=O)N(CCNC(=O)CN2CCN(CC(=O)O)CCN(CC(=O)O)CCN(CC(=O)O)CC2)C1=O)NC(=O)[C@H](CC(=O)O)NC(=O)[C@H](CC(C)C)NC(=O)[C@H](CCC(=O)O)NC(=O)[C@H](C)NC(=O)[C@H](CC(N)=O)NC(=O)[C@H](C)NC(=O)[C@H](C)NC(=O)[C@H](CCC(=O)O)NC(=O)[C@H](CCCCN)NC(=O)[C@H](C)NC(=O)[C@H](CO)NC(=O)[C@H](C)NC(=O)[C@H](CC(C)C)NC(=O)CN)C(C)C)[C@@H](C)CC)[C@@H](C)O)C(C)C)C(C)C)C(=O)N[C@@H](CC(C)C)C(=O)N[C@@H](C)C(=O)N[C@@H](C)C(=O)N[C@@H](CC(C)C)C(=O)N1CCC[C@H]1C(=O)O", "note": "(stereo partly drawn) [PEP07968]", "values": [{"measurement": "immunogenicity classification", "setting": "[3]", "result": "non-immunogenic"}]}, {"smiles": "CC[C@H](C)[C@H](NC(=O)[C@H](C)NC(=O)[C@H](CC(=O)O)NC(=O)[C@H](CCCCN)NC(=O)[C@H](CC(C)C)NC(=O)[C@H](C)NC(=O)[C@H](CCC(=O)O)NC(=O)[C@@H](NC(=O)CNC(=O)[C@H](CCC(=O)O)NC(=O)[C@@H](NC(=O)[C@@H](NC(=O)[C@H](CCCCN)NC(=O)[C@H](C)NC(=O)[C@H](CCCCN)NC(=O)[C@H](CC(=O)O)NC(=O)[C@@H](NC(=O)[C@H](CC(C)C)NC(=O)[C@H](CCCNC(=N)N)NC(=O)[C@H](CCCCN)NC(=O)[C@H](Cc1ccc(O)cc1)NC(=O)[C@H](Cc1ccccc1)NC(=O)[C@H](CC(=O)O)NC(=O)[C@H](CO)NC(=O)[C@@H](NC(=O)CNC(=O)[C@H](Cc1ccc(O)cc1)NC(=O)[C@H](CO)NC(=O)[C@H](CC(=O)O)NC(=O)[C@H](CC(C)C)NC(=O)[C@H](CCC(=O)O)NC(=O)[C@H](C)NC(=O)[C@H](CC(N)=O)NC(=O)[C@H](C)NC(=O)[C@H](C)NC(=O)[C@H](CCC(=O)O)NC(=O)[C@H](CCCCN)NC(=O)[C@H](C)NC(=O)[C@H](CCC(=O)O)NC(=O)[C@H](C)NC(=O)[C@H](CC(C)C)NC(=O)[C@H](CO)NC(=O)CN)C(C)C)[C@@H](C)CC)[C@@H](C)O)C(C)C)C(C)C)C(=O)N[C@@H](CC(C)C)C(=O)N[C@@H](C)C(=O)N[C@@H](C)C(=O)N[C@@H](CC(C)C)C(=O)N1CCC[C@H]1C(=O)O", "note": "[PEP07986]", "values": [{"measurement": "solubility", "setting": "physchem; pH 7.2", "result": "more than 42 mg/ml"}, {"measurement": "solubility", "setting": "physchem; pH 7.2, aqueous buffer", "result": "≥ 42", "unit": "mg/mL"}]}]}
